Numbering of substitutions follows the chain as printed. Blank lines part the entries; values can stand above or below the binder they belong to.
How the values were obtained:
[1] = biological target: Herceptin Fab with a kappa light chain and binding specificity for Her2/neu (from the monoclonal antibody trastuzumab); experiment: BLI (ForteBio), biotinylated ligand on sensor, 1:1 fit
[2] = biological target: Tremfya Fab with a lambda light chain and binding specificity for IL23 (from the monoclonal antibody guselkumab); experiment: as above
[3] = biological target: dimeric human IgG-lambda (Southern Biotech, Birmingham AL); experiment: as above
[4] = biological target: Ajovy (IgG2 monoclonal antibody); experiment: BLI, biotinylated ligand on sensor; 'Binding affinity (nM)'
[5] = biological target: Dupixent (IgG4 monoclonal antibody); experiment: as above
[6] = biological target: Praluent (IgG1 monoclonal antibody); experiment: as above
[7] = biological target: Herceptin Fab with a kappa light chain and binding specificity for Her2/neu (from the monoclonal antibody trastuzumab); experiment: BLI (ForteBio), biotinylated ligand on sensor, as in Example 2
[8] = biological target: Tremfya Fab with a lambda light chain and binding specificity for IL23 (from the monoclonal antibody guselkumab); experiment: as above
[9] = biological target: dimeric human IgG-lambda (Southern Biotech, Birmingham AL); experiment: as above

Kd [4]: 270 nM
Kd [5]: 8 nM
Kd [6]: < 1 nM
B2: affinity ligand SEQ ID NO: 157 (designed binder)
chain: MGLAEAAAREAAARAADEAERWYDLGAAYAARGDYDRAIEYYQRALEHDPNDAWAWWELGVAYAARGDYDRAIEYYQRALELDTNNAVAWARLGIAYAARGDYDRAIEYYQRALELDPNNEVARGALEYARRARRHHHHHH
modifications: biotinylated (AviTag system)

Kd [4]: 665 nM
Kd [5]: 25 nM
Kd [6]: < 1 nM
B3: affinity ligand SEQ ID NO: 162 (designed binder)
chain: B2 chain with H48L, T84L, G125D
modifications: biotinylated (AviTag system)

Kd [4]: 282 nM
Kd [5]: 176 nM
Kd [6]: < 1 nM
B6: affinity ligand SEQ ID NO: 158 (designed binder)
chain: MGDEAERWYDLGAAYAARGDYDRAIEYYQRALELDPNDAWAWWELGVAYAARGDYDRAIEYYQRALELDLNNAVAWARLGIAYAARGDYDRAIEYYQRALELDPNNEVARDALEYARRARRCHHHHHH
modifications: biotinylated (AviTag system)

Kd [4]: 436 nM
Kd [5]: 9 nM
Kd [6]: < 1 nM
B8: affinity ligand SEQ ID NO: 159 (designed binder)
chain: MGHHHHHHDEAERWYDLGAAYAARGDYDRAIEYYQRALEHDPNDAWAWWELGVAYAARGDYDRAIEYYQRALELDTNNAVAWARLGIAYAARGDYDRAIEYYQRALELDPNNEVARGALEYARRARRC
modifications: biotinylated (AviTag system)

Kd [4]: 543 nM
Kd [5]: 24 nM
Kd [6]: < 1 nM
B9: affinity ligand SEQ ID NO: 160 (designed binder)
chain: B8 chain with H40L, T76L, G117D
modifications: biotinylated (AviTag system)

Kd [4]: 654 nM
Kd [5]: 31 nM
Kd [6]: < 1 nM
B18: affinity ligand SEQ ID NO: 161 (designed binder)
chain: MAWAEFRQRLAAIRTRLEALGGSEAELAAFEREIAAFESELQAYAGAGNPEVEALRREAAAIRDELQAYRHNDEAERWYDLGAAYAARGDYDRAIEYYQRALELDPNDAWAWWELGVAYAARGDYDRAIEYYQRALELDLNNAVAWARLGIAYAARGDYDRAIEYYQRALELDPNNEVARDALEYARRARRHHHHHH
modifications: biotinylated (AviTag system)

The next lines start with the binder.

B1: affinity ligand SEQ ID NO: 81 (designed binder)
chain: MGGGGSAAAGDEAERWYDLGAAYAARGDYDRAIEYYQRALELDPNNAWAWWELGVAYAARGDYDRAIEYYQRALELDPNNAVAWRRLGIAYAARGDYDRAIEYYQRALELDPNNEVARDALEYARRARRGQAGQGGGSGLNDIFEAQKIEWHECHHHHHH
modifications: biotinylated (AviTag system)
Kd [1]: 31 nM
Kd [2]: 8 nM
Kd [3]: < 1 nM

B4: affinity ligand SEQ ID NO: 41 (designed binder)
chain: MAQAAAGDEAQRWETLGAAYAARGDYDRAIEYYQRALELDPNNAWAWWELGVAYAARGDYDRAIEYYQRALELDPDDAAAWRRLGHAYAARGDYDRAIEYYERALELDPEDELARRILEDARRARQGQAGQGGGSGLNDIFEAQKIEWHECHHHHHH
modifications: biotinylated (AviTag system)
Kd [7]: 15 nM
Kd [8]: 24 nM
Kd [9]: 3 nM

B5: affinity ligand SEQ ID NO: 154 (designed binder)
chain: B6 chain with L70P
modifications: biotinylated (AviTag system)
Kd [4]: 92 nM
Kd [5]: 13 nM
Kd [6]: < 1 nM

B7: affinity ligand SEQ ID NO: 155 (designed binder)
chain: B6 chain with L34H, L70T, D111G
modifications: biotinylated (AviTag system)
Kd [4]: 117 nM
Kd [5]: 32 nM
Kd [6]: < 1 nM

B10: affinity ligand SEQ ID NO: 94 (designed binder)
chain: MGGGGSAAAGDEAVRWEIQGAAYAARGDYDRAIEYYERALELDPNNAWAWWELGVAYAARGDYDRAIEYYERALELDPDDAHVWFRLGWAYAVRGDYDRAIEYYERALELDPEDELARRILEDARRARQGQAGQGGGSGLNDIFEAQKIEWHECHHHHHH
modifications: biotinylated (AviTag system)
Kd [1]: 14 nM
Kd [2]: 3 nM
Kd [3]: < 1 nM

B11: affinity ligand SEQ ID NO: 80 (designed binder)
chain: MGGGGSAAAGDEADRWAALGAAYAARGDYDRAIEYYQRALELDPNNAWAWWDLGVAYAARGDYDRAIEYYERALELDPDDAHAWFRLGWAYAARGDYDRAIEYYERALELDPEDETARDVLEGARRARQGQAGQGGGSGLNDIFEAQKIEWHECHHHHHH
modifications: biotinylated (AviTag system)
Kd [1]: 7 nM
Kd [2]: 4 nM
Kd [3]: < 1 nM

B12: affinity ligand SEQ ID NO: 89 (designed binder)
chain: MGGGGSAAAGDEAQHWENQGAAYAARGDYDRAIEYYGRALELDPNNAWAWWELGVAYAARGDYDRAIEYYERALELDPDDATTWSRLGHAYAARGDYDRAIEYYERALELDPEDETARYLLEHARRARQGQAGQGGGSGLNDIFEAQKIEWHECHHHHHH
modifications: biotinylated (AviTag system)
Kd [1]: 41 nM
Kd [2]: 8 nM
Kd [3]: < 1 nM
Kd [7]: 41 nM
Kd [8]: 8 nM
Kd [9]: < 1 nM

B13: affinity ligand SEQ ID NO: 91 (designed binder)
chain: B12 chain with H15R, T83A, D114N
modifications: biotinylated (AviTag system)
Kd [1]: 46 nM
Kd [2]: 11 nM
Kd [3]: < 1 nM

B14: affinity ligand SEQ ID NO: 93 (designed binder)
chain: B12 chain with H15R, G37E, Y63F, T83V, E113V
modifications: biotinylated (AviTag system)
Kd [1]: 15 nM
Kd [2]: 4 nM
Kd [3]: < 1 nM

B15: affinity ligand SEQ ID NO: 90 (designed binder)
chain: B12 chain with H15C, G37E, E105V
modifications: biotinylated (AviTag system)
Kd [1]: 51 nM
Kd [2]: 12 nM
Kd [3]: < 1 nM
Kd [7]: 51 nM
Kd [8]: 12 nM
Kd [9]: < 1 nM

B16: affinity ligand SEQ ID NO: 92 (designed binder)
chain: B12 chain with H15R, G37E, D43E, T83A, E102G, D114N
modifications: biotinylated (AviTag system)
Kd [1]: 28 nM
Kd [2]: 8 nM
Kd [3]: < 1 nM
Kd [7]: 28 nM
Kd [8]: 8 nM
Kd [9]: < 1 nM

B17: affinity ligand SEQ ID NO: 156 (designed binder)
chain: B18 chain with L104H, L140T, D181G
modifications: biotinylated (AviTag system)
Kd [4]: 224 nM
Kd [5]: 7 nM
Kd [6]: < 1 nM

From US20250059258A1
